How the values were obtained:
[1] = target: eIFiso4F (unphosphorylated; wheat eIFiso4E and eIFiso4G) (wheat)
[2] = target: phosphorylated eIFiso4F (wheat eIFiso4Ep and eIFiso4Gp, phosphorylated in vitro by casein kinase 2) (wheat)
[3] = target: phosphorylated eIFiso4F (wheat eIFiso4Ep and eIFiso4Gp, phosphorylated in vitro by casein kinase 2) (wheat); assay: other fluorescence titration; Van't Hoff plot (ln Keq against 1/T) of the fluorescence titrations at 5, 10, 15, 20 and 25°C
[4] = target: phosphorylated eIFiso4F in complex with eIF4B (wheat) (UniProt Q9AUJ7); assay: as above
[5] = target: phosphorylated eIFiso4F in complex with poly(A)-binding protein (wheat); assay: as above
[6] = target: phosphorylated eIFiso4F in complex with eIF4B and poly(A)-binding protein (wheat) (UniProt Q9AUJ7); assay: as above
[7] = target: phosphorylated eIFiso4F (wheat eIFiso4Ep and eIFiso4Gp, phosphorylated in vitro by casein kinase 2) (wheat); assay: other fluorescence titration; 10°C; quenching of the intrinsic fluorescence of the eIFs by increasing VPg; 20 mM HEPES/KOH pH 7.6, 100 mM NaCl, 1 mM MgCl2, 1 mM DTT
[8] = target: phosphorylated eIFiso4F in complex with eIF4B (wheat) (UniProt Q9AUJ7); assay: as above
[9] = target: phosphorylated eIFiso4F in complex with poly(A)-binding protein (wheat); assay: as above
[10] = target: phosphorylated eIFiso4F in complex with eIF4B and poly(A)-binding protein (wheat) (UniProt Q9AUJ7); assay: as above
[11] = target: phosphorylated eIFiso4F (wheat eIFiso4Ep and eIFiso4Gp, phosphorylated in vitro by casein kinase 2) (wheat); assay: other fluorescence titration; 20°C; quenching of the intrinsic fluorescence of the eIFs by increasing VPg; 20 mM HEPES/KOH pH 7.6, 100 mM NaCl, 1 mM MgCl2, 1 mM DTT
[12] = target: phosphorylated eIFiso4F in complex with eIF4B (wheat) (UniProt Q9AUJ7); assay: as above
[13] = target: phosphorylated eIFiso4F in complex with poly(A)-binding protein (wheat); assay: as above
[14] = target: phosphorylated eIFiso4F in complex with eIF4B and poly(A)-binding protein (wheat) (UniProt Q9AUJ7); assay: as above
[15] = target: phosphorylated eIFiso4F (wheat eIFiso4Ep and eIFiso4Gp, phosphorylated in vitro by casein kinase 2) (wheat); assay: other fluorescence titration; 5°C; quenching of the intrinsic fluorescence of the eIFs by increasing VPg; 20 mM HEPES/KOH pH 7.6, 100 mM NaCl, 1 mM MgCl2, 1 mM DTT
[16] = target: phosphorylated eIFiso4F in complex with eIF4B (wheat) (UniProt Q9AUJ7); assay: as above
[17] = target: phosphorylated eIFiso4F in complex with poly(A)-binding protein (wheat); assay: as above
[18] = target: phosphorylated eIFiso4F in complex with eIF4B and poly(A)-binding protein (wheat) (UniProt Q9AUJ7); assay: as above
[19] = target: phosphorylated eIFiso4F (wheat eIFiso4Ep and eIFiso4Gp, phosphorylated in vitro by casein kinase 2) (wheat); assay: other fluorescence titration; 25°C; quenching of the intrinsic fluorescence of the eIFs (excitation 280 nm, emission 334 nm) by increasing VPg; 100 nM eIFs or BSA (results; 500 nM in the methods); 20 mM HEPES/KOH pH 7.6, 100 mM NaCl, 1 mM MgCl2, 1 mM DTT; complexes pre-formed for 15 min
[20] = target: phosphorylated eIFiso4F in complex with eIF4B (wheat) (UniProt Q9AUJ7); assay: as above
[21] = target: phosphorylated eIFiso4F in complex with poly(A)-binding protein (wheat); assay: as above
[22] = target: phosphorylated eIFiso4F in complex with eIF4B and poly(A)-binding protein (wheat) (UniProt Q9AUJ7); assay: as above
[23] = target: phosphorylated eIFiso4F (wheat eIFiso4Ep and eIFiso4Gp, phosphorylated in vitro by casein kinase 2) (wheat); assay: other fluorescence titration; 15°C; quenching of the intrinsic fluorescence of the eIFs by increasing VPg; 20 mM HEPES/KOH pH 7.6, 100 mM NaCl, 1 mM MgCl2, 1 mM DTT
[24] = target: phosphorylated eIFiso4F in complex with eIF4B (wheat) (UniProt Q9AUJ7); assay: as above
[25] = target: phosphorylated eIFiso4F in complex with poly(A)-binding protein (wheat); assay: as above
[26] = target: phosphorylated eIFiso4F in complex with eIF4B and poly(A)-binding protein (wheat) (UniProt Q9AUJ7); assay: as above

viral protein genome-linked (VPg) of turnip mosaic virus (natural protein)
luciferase translation of uncapped TEV mRNA in eIF4F/eIFiso4F/eIF4B/PABP-depleted WGE with 20 nM VPg, escalating PABP up to 200 nM against no PABP [1]: 3 fold
luciferase translation of capped TEV-luc-A50 mRNA in depleted WGE supplemented with eIFiso4Fp, with against without 20 nM VPg [2]: 2.5 fold
luciferase translation of uncapped TEV-luc-A50 mRNA in depleted WGE supplemented with eIFiso4Fp, with against without 20 nM VPg [2]: 5 fold
luciferase translation of uncapped TEV-luc-A50 mRNA in depleted WGE with eIFiso4Fp and VPg, with against without added PABP [2]: 2 fold
dH [3]: -7.98 kcal/mol
dH [4]: -8.46 kcal/mol
dH [5]: -11.7 kcal/mol
dH [6]: -12.8 kcal/mol
Kd [7]: 21 nM
Kd [8]: 19.1 nM
Kd [9]: 14 nM
Kd [10]: 12 nM
Kd [11]: 31 nM
Kd [12]: 29.3 nM
Kd [13]: 26.5 nM
Kd [14]: 19.5 nM
Kd [15]: 17.1 nM
Kd [16]: 15 nM
Kd [17]: 10.3 nM
Kd [18]: 8.6 nM
Kd [19]: 41 nM
Kd [20]: 34.1 nM
Kd [21]: 32 nM
Kd [22]: 24 nM
Kd [23]: 26.2 nM
Kd [24]: 24 nM
Kd [25]: 19.1 nM
Kd [26]: 16.1 nM
